Laboratory results taken from patent US20250074980A1 (BRIGHAM AND WOMEN S HOSPITAL, published 2025).

T1: CEACAM3 on transfected HeLa cells (human, UniProt P40198 35-252)
T1 construct: whole, on cells; also called HeLa-CEACAM3; HeLa C3
T1 sequence (looked up): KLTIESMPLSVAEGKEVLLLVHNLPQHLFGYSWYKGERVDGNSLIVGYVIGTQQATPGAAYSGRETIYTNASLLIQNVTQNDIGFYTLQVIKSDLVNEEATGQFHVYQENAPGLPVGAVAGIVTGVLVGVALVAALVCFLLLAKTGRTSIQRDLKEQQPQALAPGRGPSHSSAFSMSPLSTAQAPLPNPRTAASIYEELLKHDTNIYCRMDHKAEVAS

T2: His-tagged CEACAM1 (human, UniProt P13688 35-428)
T2 construct: 45 kDa SPR analyte; also called CEACAM1-HIS; CEACAM1 analyte
T2 sequence: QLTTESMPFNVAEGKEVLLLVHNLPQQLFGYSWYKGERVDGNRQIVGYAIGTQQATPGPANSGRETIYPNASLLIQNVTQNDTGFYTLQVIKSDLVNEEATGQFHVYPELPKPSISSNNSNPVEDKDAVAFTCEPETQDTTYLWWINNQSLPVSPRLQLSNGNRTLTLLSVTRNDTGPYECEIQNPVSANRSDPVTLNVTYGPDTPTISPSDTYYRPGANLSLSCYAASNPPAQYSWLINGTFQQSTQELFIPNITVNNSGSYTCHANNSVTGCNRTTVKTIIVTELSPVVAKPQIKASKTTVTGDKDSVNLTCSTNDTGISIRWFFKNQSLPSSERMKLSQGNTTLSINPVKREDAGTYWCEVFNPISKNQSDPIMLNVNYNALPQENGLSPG

T3: GST-CEACAM1 (human, UniProt P13688 35-141, limits assumed)
T3 construct: also called human CEACAM1-GST protein
T3 sequence: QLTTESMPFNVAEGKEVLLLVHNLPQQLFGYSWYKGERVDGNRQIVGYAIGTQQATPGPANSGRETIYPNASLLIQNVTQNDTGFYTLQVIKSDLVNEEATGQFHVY


Assays:
[1] = biological target: T1, CEACAM3 on transfected HeLa cells; assay: flow cytometry, HeLa-CEACAM3 transfectants, % staining, stacked bars
Description: FIG. 11 illustrates the binding selectivity of different affinity-matured CEACAM1 antibodies. […] HELA cells were transfected with vector alone (HeLa-Neo) or vectors expressing CEACAM1, CEACAM3, CEACAM5, or CEACAM6, respectively, and stained with the indicated antibodies. […] MOPC=mouse IgG1 control antibody. Mouse antibodies as positive control for transfected CEACAM isoforms: Col-1=CEACAM3 and CEACAM5 antibody. 9A6=CEACAM6 antibody. T84.1=CEACAM cross-reactive antibody and T84.66=CEACAM5 antibody. Only 2nd FITC=No primary antibody, only secondary FITC conjugated antibody. […] Data for affinity-matured antibodies 9B3_8H3/Vκ8 S29A, 8H3_9B3/CP08_E05, and 8H3_9C2/CPO08_F05, as well as data for CEACAM8 antibody 80H3 were omitted from the FIG. due to an unusually high background signal.

[2] = biological target: T2, His-tagged CEACAM1; assay: SPR single-cycle, purified IgG captured
Summary of the method: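 Binding was measured by surface plasmon resonance in single-cycle kinetics mode on a Biacore T200, running in HBS-P+ (pH 7.4) at 25° C. His-tagged CEACAM1 served as analyte over purified IgG captured on a Series S Protein A chip. After subtraction of reference-channel and blank-run signals, kon, koff and Kd were fitted, and relative KD was expressed against the parent antibody from the same experiment.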

[3] = biological target: T2, His-tagged CEACAM1; assay: SPR single-cycle, supernatant IgG captured
Method: In order to assess the binding of the humanized, affinity matured reformatted lead IgGs, single-cycle kinetics analysis was performed on crude supernatants using a Biacore T200 running Biacore T200 Control Software V2.0.1 and Biacore T200 Evaluation Software V3.0. Antibodies were diluted in HBS-P+ to a final concentration of 0.5 μg/ml. At the start of each cycle, antibodies were loaded onto Fc2, Fc3 and Fc4 of the Protein A chip. IgGs were captured at a flow rate of 10 μl/min to give an immobilisation level (RL) of ˜100 RU (a level calculated to obtain a Rₘₐₓ of ˜50-150 RU once the analyte is bound). The surface was then allowed to stabilize. Single-cycle kinetics data was obtained with CEACAM1 as the analyte at a flow rate of 80 μl/min to minimize any potential mass transfer effects. Multiple repeats with the parent (VH1/Vκ8 S29A) antibody were performed to check the stability of the surface and analyte over the kinetic cycles. The signal from the reference channel Fc1 (no antibody) was subtracted from that of Fc2, Fc3 and Fc4 to correct for differences in non-specific binding to the reference surface. A three point, two-fold dilution range from 70 nM to 280 nM CEACAM1 without regeneration between each concentration was used. The signal from each antibody blank run (no CEACAM1) was subtracted to correct for differences in surface stability. The association phase for the three injections of increasing concentrations of CEACAM1 was monitored for 80 seconds each time and a single dissociation phase was measured for 150 seconds following the last injection of CEACAM1. Regeneration of the Protein A surface was conducted using two injections of 10 mM glycine-HCL pH 1.5 followed by a stabilization period of 250 seconds.

[4] = biological target: T2, His-tagged CEACAM1; assay: SPR single-cycle, supernatant IgG captured; remark: listed apart in the source
Summary of the method: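 Antibody IgG was produced by transient PEI transfection of HEK EBNA cells in 6-well plates, with supernatants collected 5-7 days later, quantified by ELISA and filtered. Binding was measured by single-cycle surface plasmon resonance on a Biacore T200 at 25° C in HBS-P+ (pH 7.4), capturing IgG on Protein A and flowing His-tagged CEACAM1 as analyte. Kon, koff and Kd were obtained by fitting, and relative KD was expressed against the parent antibody tested in the same experiment.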

[5] = biological target: T3, GST-CEACAM1; assay: competition ELISA vs parental murine antibody
Method: The binding of the purified antibodies to human CEACAM1 was assessed in a competition ELISA assay. Nunc Immuno MaxiSorp 96 well flat bottom microtitre plates were pre-coated with 1 μg/ml of GST-CEACAM1 in 1×PBS, overnight at 4° C. The following day the plates were blocked for 1 hour at room temperature (“RT”) with 2% BSA/PBS before washing 3× with PBST pH 7.4. A 3-fold dilution series of the chimeric antibody chimeric antibody VH0/Vκ0, an irrelevant IgG4 antibody, and the humanized CEACAM1 antibodies from 100 μg/ml to 0.07 or 0.002 μg/ml were pre-mixed with a constant concentration of parental murine antibody (0.45 μg/ml final concentration), added to the plate and incubated for 1 hour at room temperature. Following 3×PBST washes, the binding of the parental murine CEACAM1 antibody was detected with an anti-mouse-HRP and TMB substrate. The reaction was stopped with 3 M HCl, absorbance read at 450 nm on a Dynex Technologies MRX TC II plate reader and the binding curves plotted. The binding of the humanized CEACAM antibody variants to CEACAM1 was compared to the chimeric antibody (VHO/Vκ0), which was included on each plate.

[6] = biological target: T2, His-tagged CEACAM1; assay: SPR single-cycle, IgG captured
Summary of the method: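 Biacore T200 single-cycle kinetics at 25° C in HBS-P+ (pH 7.4): antibodies (purified or HEK EBNA supernatant, 1 μg/ml) captured on Protein A to ~75 RU, His-tagged CEACAM1 analyte at 3.125–50 nM (5-point 2-fold) at 50 μl/min without regeneration. Reference channel Fc1 subtracted.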

Row | Binder | binding result [1] | Kd [2] | koff [2] | kon [2] | relative KD to parent [2] | Kd [3] | koff [3] | kon [3] | relative KD to parent [3] | Kd [4] | koff [4] | kon [4] | relative KD to parent [4] | binding result [5] | binding result [6]
1 | 9B3_9E5/CP08E05 (antibody, IgG4, V domains shown, IgG4 (S241P), kappa) VH: EVQLLESGGGLVQPGGSLRLSCAASGFTFNAHAISWVRQAPGKGLEWVATISSGGTYTYYPDSVKGRFTISRDNSKNTLYLQMNSLKAEDTAMYYCARHGFDYDAAWFAYWGQGTLVTVSS VL: EIVLTQSPATLSLSPGERATLSCRANSAVSYMYWYQQKPGQAPRPWIYLTSNRATGVPARFSGSGSGTDYTLTISSLEPEDFAVYYCQQWTTNPPTFGQGTKLEIK | binds | 61 nM | 0.007 s⁻¹ | 110000 M⁻¹ s⁻¹ | 7.8 | 67 nM | 0.0078 s⁻¹ | 120000 M⁻¹ s⁻¹ | 8.3 | – | – | – | – | – | –
2 | CP09C02/CP08E05 (antibody, IgG4, V domains shown, IgG4 (S241P), kappa) VH: EVQLLESGGGLVQPGGSLRLSCAASEFTFSDHAMSWVRQAPGKGLEWVATISSGGTYTYYPDSVKGRFTISRDNSKNTLYLQMNSLKAEDTAMYYCARHGFDYDAAWFAYWGQGTLVTVSS VL: EIVLTQSPATLSLSPGERATLSCRANSAVSYMYWYQQKPGQAPRPWIYLTSNRATGVPARFSGSGSGTDYTLTISSLEPEDFAVYYCQQWTTNPPTFGQGTKLEIK | binds | 72 nM | 0.007 s⁻¹ | 97000 M⁻¹ s⁻¹ | 6.6 | – | – | – | – | 78 nM | 0.0075 s⁻¹ | 96000 M⁻¹ s⁻¹ | 7.1 | – | –

Second part, the binder after the results:

Row | binding result [1] | Kd [2] | koff [2] | kon [2] | relative KD to parent [2] | Kd [3] | koff [3] | kon [3] | relative KD to parent [3] | Kd [4] | koff [4] | kon [4] | relative KD to parent [4] | binding result [5] | binding result [6] | Binder
3 | – | – | – | – | – | – | – | – | – | – | – | – | – | no binding (tested: 100 µg/ml) | no binding (tested: 50 nM) | VH3/Vκ5 (antibody, IgG4, V domains shown, IgG4 (S241P), kappa) VH: EVQLLESGGGLVQPGGSLRLSCAASGFIFSSHGMSWVRQAPGKGLEWVATISSGGTYTYYADSVKGRFTISRDNSKNTLYLQMNSLRAEDTAMYYCARHDFDYDAAWFAYWGQGTLVTVSS VL: EIVLTQSPATLSLSPGERATLSCRANSSVSYMAWYQQKPGQAPRLLIYLTSNRATGIPARFSGSGSGTDFTLTISSLEPEDFAVYYCQQWSSNPPTFGQGTKLEIK
4 | – | – | – | – | – | – | – | – | – | – | – | – | – | no binding (tested: 100 µg/ml) | no binding (tested: 50 nM) | VH2/Vκ5 (antibody, IgG4, V domains shown, IgG4 (S241P), kappa) VH: EVQLLESGGGLVQPGGSLRLSCAASGFIFSSHGMSWVRQAPGKGLEWVATISSGGTYTYYPDSVKGRFTISRDNSKNTLYLQMNSLRAEDTAMYYCARHDFDYDAAWFAYWGQGTLVTVSS VL: EIVLTQSPATLSLSPGERATLSCRANSSVSYMAWYQQKPGQAPRLLIYLTSNRATGIPARFSGSGSGTDFTLTISSLEPEDFAVYYCQQWSSNPPTFGQGTKLEIK
